B1: FBN-KGF: Keratinocyte growth factor covalently coupled to FBN using carbodiimide and N-hydroxysulfosuccinimide (conjugate, UniProt P21781 32-194, looked up)
Fibroblast growth factor 7: CNDMTPEQMATNVNCSSPERHTRSYDYMEGGDIRVRRLFCRTQWYLRIDKRGKVKGTQEMKNNYNIMEIRTVAVGIVAIKGVESEFYLAMNKEGKLYAKKECNEDCNFKELILENHYNTYASAKWTHNGGEMFVALNQKGIPVRGKKTKKEQKTAHFLPMAIT
modifications: coupled to FBN nanoparticles
notes: Keratinocyte growth factor covalently coupled to FBN using carbodiimide and N-hydroxysulfosuccinimide
B2: free KGF: Keratinocyte growth factor (CYT-219, Prospec Protein Specialist) (protein, UniProt P21781 32-194, looked up)
Fibroblast growth factor 7: B1 Fibroblast growth factor 7

What was measured:
[1] = tested on: epithelial dorsal dermal wounds; assay: In vivo dermal wound healing in mice; conditions: C57BF/6 mice; for 3-day average dermal area closure: 4 mm biopsy punch wounds, first 3 days; for slope of linear fit of average % normalized wound area: assuming linear healing rate of the first 3 days
Protocol: In vivo validation that fibrin nanoparticles can assist wound healing was performed in mice. Dermal wounds were created and the rate of healing measured over several days. Two epithelial dorsal dermal wounds were created in10-week-old healthy male […]/6 mice (Charles River Faboratories Wilmington, Mass.) using a 4 mm diameter biopsy punch. The skin was excised and the inner […] was removed using surgical tools. Wound healing due to skin refolding was prevented by stitching the surrounding skin to a sterilized silicone ring. The annular silicone ring was laser cut from a silicone sheet acquired from Grace Bio-Fabs, Bend, Oreg., to a required inner diameter of 4.9 mm. The silicone ring was held in position with stationary glue and stitches. […] Each wound was immediately imaged using a handheld Nikon camera and separately treated with control 0.9% saline, bulk fibrin gel (400 (μg), FBN (20 (μg), or FBN-KGF (20 μg at the highest concentration). After treatment, the wound was covered with translucent moisture responsive catheter dressing (IV3000, Smith & Nephew, Andover, Mass.) attached over the silicone ring. The porous sheet was also laser cut to the required dimensions to aid the surgeon and to match the wound area. The wound area was imaged using a handheld Nikon camera every 24 hours after removing the translucent dressing. Image analysis of the wound was performed in ImageJ and the scale was measured using the known inner diameter of the silicone ring. The % change in wound area on each day was compared its wound area in day 0 (day of biopsy). The rate of wound healing was quantified by plotting averaged % normalized wound area for each wound treatment. The slope of a linear fit of the average % normalized wound area for the first 3 days post biopsy was calculated in Prism and 2-way Anova statistics were performed to compare the slopes of each treatment (FIG. 9).

Human dermal fibroblasts = assay: In vitro 3D collagen gel wound model, cell migration into biopsied wound; type: cell-based; conditions: 3D collagen gels, 20 μl sample into biopsied region, compared with saline and free KGF controls
Protocol: Human dermal fibroblasts (500,000 cells/ml) were embedded in 3D collagen gels (3 mg/ml) in serum-free culture media. Using biopsy punches, “wounds” 2 mm in diameter were created with approximately 0.5-1 mm depth. The biopsied 3D wounds were filled with fibrin nanoparticles (FBN), FBN with attached Keratinocyte Growth Factor (FBN-KGF) or saline (controls). The number of cells migrating into the hole from the surrounding 3D collagen gel was counted every 18-24 hours. Data from each sample was normalized to its biopsy area (in mm^2). The cell migration rate was measured by counting cell numbers within the normalized biopsy area (# cells/unit area) on each day. Each treatment was compared with saline and KGF only controls. […] Bulk fibrin sealants require high concentrations of fibrinogen and thrombin in order to induce fast polymerization at the surgical/wound site; by delivering prepolymerized FBNs we are able to circumvent this issue and without inhibiting migration.

Row | Molecule | 3-day average dermal area closure [1] [%] | slope of linear fit of average % normalized wound area [1] | cell recruitment / cell migration into 3D wound (Human dermal fibroblasts)
1 | B1 | 48±9 | −16±3 | significantly enhanced cell recruitment and or cell proliferation
2 | B2 | 42±12 | −14±2 | –

From patent US11786477B2, “Fibrin particles and methods of making the same” (NORTH CAROLINA STATE UNIVERSITY, priority 2017, dated 2023)
